Molecular target: Laminin 421/521
Test: phage display, NGS count

Binder | Count
WVAAERR | 115
EGHVWSEYTWGT | 50
KQELSDNLASHR | 50
RLVTASMVSPSF | 95
HQSLAGVPWSRH | 53
SGWEGKTHQGVR | 69
HASNQRV | 93
QTLQTRH | 44
DGQVSDHSYVQW | 101
KPILWNRSLNAL | 52
CNHLTQKLC | 45
GEPLTRFPNSDS | 52
ADMPQMTLKYGV | 47
VPVFLDQARVMK | 53
CTSKLARHC | 45
GDLWNVP | 51
AWNGNRS | 47
CGITQTTTC | 55
SLAVANTRFMIR | 49

Binder | Count
KISMNRLHANFT | 110
GPKNHHQ | 51
SWQMRSY | 48
LQSNAADHHQGM | 75
CTGRISKHC | 43
GDLLLKR | 47
HSFLGAR | 44
SDRGKTVLHGQI | 54
EYWHQRGSWFHR | 55
DRLTPITWDWSR | 86
GGGYHIFGPLVT | 43
YTPRNQL | 55
LLAGPFR | 44
ASHSRPLMNYAP | 49
GFADVIHRKWSS | 53
CSLANPATC | 52
GSGFRNEEHSAH | 51
ATSKYPNSWAQT | 80
RAQAHQV | 51

Binder | Count
SFRNLEKLSLWS | 50
MTHSAHNSQKTN | 117
WTKHNTPAHHLS | 89
WAFKAPQ | 61
GAMMNSNNLVAR | 43
NNNAAMQNHGVR | 51
VPQIRIK | 47
GRTIHSM | 95
QTRWDDGSYQIS | 49
CHQRQQTYC | 55
YHLGPNQKMRTS | 48
GHPWTEIDFMSS | 50
WDLPTLRKTKQA | 114
WPVRNLL | 67
ALGGEPRKAYQR | 45
GSLDMGNNKQPV | 62
DDLLTAPRLGVW | 54
ETYKVTRVISPW | 50
